# B1: APOBEC3G, Q9HC16 1-384 (enzyme)
# chain: MKPHFRNTVERMYRDTFSYNFYNRPILSRRNTVWLCYEVKTKGPSRPPLDAKIFRGQVYSELKYHPEMRFFHWFSKWRKLHRDQEYEVTWYISWSPCTKCTRDMATFLAEDPKVTLTIFVARLYYFWDPDYQEALRSLCQKRDGPRATMKIMNYDEFQHCWSKFVYSQRELFEPWNNLPKYYILLHIMLGEILRHSMDPPTFTFNFNNEPWVRGRHETYLCYEVERMHNDTWVLLNQRRGFLCNQAPHKHGFLEGRHAELCFLDVIPFWKLDLDQDYRVTCFTSWSPCFSCAQEMAKFISKNKHVSLCIFTARIYDDQGRCQEGLRTLAEAGAKISIMTYSEFKHCWDTFVDHQGCPFQPWDGLDEHSQDLSGRLRAILQNQEN
# Target: APOBEC3G (human), Q9HC16
# Test: SEC; 10-15 µg of purified enzyme (low enzyme concentration) on a 10 mL Superdex 200 column; 50 mM Tris pH 7.5, 200 mM NaCl; masses and oligomerization states from a Bio-Rad gel filtration standard curve
# Settings: remark: other sources report otherwise
binder,measurement,value
B1,stoichiometry N,2
